Laboratory results published in the supplement of paper PMC10567573.

B1: RAB11A (parent)
chain: AVPTDEARAFAEKNGLSFIETSAL

Variants of: B1
Assay: protein stability index of a GFP-peptide fusion (GPS, HEK-293T) (PSI 1-6); higher = more stable
Conditions: c terminus: a fixed tail appended
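Also: lentivirally expressed fusions sorted by FACS into six bins by GFP to DsRed ratio, PSI derived from sequencing read proportions per bin multiplied by bin number.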

Q: Which protein stability index does the source give for AVPTDEARAFAEKNGLSQIETSAL here?
A: The protein stability index was 4.33.

Q: For AVPTDEARAFAEKNGLSIIETSAL, which protein stability index is on record?
A: The protein stability index was 3.6.

Q: Which protein stability index does the source give for AVPTDEARAFAEKNGLSDIETSAL here?
A: The protein stability index was 5.03.

Q: With AVPTDEARAFAEKNGLSGIETSAL as the variant, how does the protein stability index read?
A: The protein stability index was 4.35.

Q: For AVPTDEARAFAEKNGLSWIETSAL, which protein stability index is on record?
A: Its protein stability index is 3.46.

Q: Which protein stability index does the source give for AVPTDEARAFAEKNGLSYIETSAL here?
A: Its protein stability index is 2.62.

Q: With AVPTDEARAFAEKNGLSRIETSAL as the variant, how does the protein stability index read?
A: The protein stability index was 4.22.

Q: Which protein stability index does the source give for AVPTDEARAFAEKNGLSMIETSAL here?
A: The protein stability index was 3.93.

Q: With AVPTDEARAFAEKNGLSNIETSAL as the variant, how does the protein stability index read?
A: The protein stability index was 4.47.

Q: For AVPTDEARAFAEKNGLSCIETSAL, which protein stability index is on record?
A: Its protein stability index is 4.29.

Q: For AVPTDEARAFAEKNGLSFFETSAL, which protein stability index is on record?
A: Its protein stability index is 3.4.

Q: With AVPTDEARAFAEKNGLSFVETSAL as the variant, how does the protein stability index read?
A: The protein stability index was 3.

Q: For AVPTDEARAFAEKNGLSFLETSAL, which protein stability index is on record?
A: Its protein stability index is 3.71.

Q: With AVPTDEARAFAEKNGLSFCETSAL as the variant, how does the protein stability index read?
A: Its protein stability index is 3.45.

Q: Which protein stability index does the source give for AVPTDEARAFAEKNGLSFTETSAL here?
A: The protein stability index was 4.17.

Q: Which protein stability index does the source give for AVPTDEARAFAEKNGLSFRETSAL here?
A: Its protein stability index is 3.85.

Q: Which protein stability index does the source give for AVPTDEARAFAEKNGLSFNETSAL here?
A: The protein stability index was 4.43.

Q: For AVPTDEARAFAEKNGLSFPETSAL, which protein stability index is on record?
A: The protein stability index was 4.5.

Q: For AVPTDEARAFAEKNGLSFHETSAL, which protein stability index is on record?
A: The protein stability index was 2.46.

Q: With AVPTDEARAFAEWNGLSFIETSAL as the variant, how does the protein stability index read?
A: Its protein stability index is 4.07.

Q: For AVPTDEARAFAESNGLSFIETSAL, which protein stability index is on record?
A: Its protein stability index is 2.9.

Q: For AVPTDEARAFAEENGLSFIETSAL, which protein stability index is on record?
A: Its protein stability index is 2.81.

Q: With AVPTDEARAFAEDNGLSFIETSAL as the variant, how does the protein stability index read?
A: Its protein stability index is 3.88.

Q: With AVPTDEARAFAEPNGLSFIETSAL as the variant, how does the protein stability index read?
A: Its protein stability index is 2.28.

Q: Which protein stability index does the source give for AVPTDEARAFAERNGLSFIETSAL here?
A: The protein stability index was 2.52.

Q: Which protein stability index does the source give for AVPTDEARAFAEVNGLSFIETSAL here?
A: Its protein stability index is 2.23.

Q: Which protein stability index does the source give for AVPTDEARAFAETNGLSFIETSAL here?
A: Its protein stability index is 2.18.

Q: For AVPTDEARAFAEGNGLSFIETSAL, which protein stability index is on record?
A: Its protein stability index is 3.15.

Q: With AVPTDEARAFAEMNGLSFIETSAL as the variant, how does the protein stability index read?
A: Its protein stability index is 2.12.

Q: Which protein stability index does the source give for AVPPDEARAFAEKNGLSFIETSAL here?
A: Its protein stability index is 2.43.

Q: For AVPADEARAFAEKNGLSFIETSAL, which protein stability index is on record?
A: The protein stability index was 2.04.

Q: For AVPFDEARAFAEKNGLSFIETSAL, which protein stability index is on record?
A: The protein stability index was 2.06.

Q: For AVPEDEARAFAEKNGLSFIETSAL, which protein stability index is on record?
A: The protein stability index was 2.75.

Q: With AVPQDEARAFAEKNGLSFIETSAL as the variant, how does the protein stability index read?
A: Its protein stability index is 2.84.

Q: With AVPHDEARAFAEKNGLSFIETSAL as the variant, how does the protein stability index read?
A: Its protein stability index is 2.6.

Q: For AVPLDEARAFAEKNGLSFIETSAL, which protein stability index is on record?
A: Its protein stability index is 2.79.

Q: For AVPDDEARAFAEKNGLSFIETSAL, which protein stability index is on record?
A: The protein stability index was 2.84.

Q: Which protein stability index does the source give for AVPCDEARAFAEKNGLSFIETSAL here?
A: Its protein stability index is 1.89.

Q: For AVPYDEARAFAEKNGLSFIETSAL, which protein stability index is on record?
A: Its protein stability index is 2.11.

Q: Which protein stability index does the source give for AVPVDEARAFAEKNGLSFIETSAL here?
A: The protein stability index was 1.93.

Q: With AVPTDMARAFAEKNGLSFIETSAL as the variant, how does the protein stability index read?
A: Its protein stability index is 2.15.

Q: With AVPTDAARAFAEKNGLSFIETSAL as the variant, how does the protein stability index read?
A: Its protein stability index is 1.94.

Q: For AVPTDPARAFAEKNGLSFIETSAL, which protein stability index is on record?
A: The protein stability index was 1.74.

Q: With AVPTDTARAFAEKNGLSFIETSAL as the variant, how does the protein stability index read?
A: The protein stability index was 1.71.

Q: With AVPTDHARAFAEKNGLSFIETSAL as the variant, how does the protein stability index read?
A: Its protein stability index is 1.87.

Q: Which protein stability index does the source give for AVPTDNARAFAEKNGLSFIETSAL here?
A: The protein stability index was 2.24.

Q: Which protein stability index does the source give for AVPTDRARAFAEKNGLSFIETSAL here?
A: The protein stability index was 2.25.

Q: Which protein stability index does the source give for AVPTDLARAFAEKNGLSFIETSAL here?
A: Its protein stability index is 1.6.

Q: With AVPTDDARAFAEKNGLSFIETSAL as the variant, how does the protein stability index read?
A: The protein stability index was 2.18.

Q: Which protein stability index does the source give for AVPTDWARAFAEKNGLSFIETSAL here?
A: The protein stability index was 2.07.

Q: For AVPTDQARAFAEKNGLSFIETSAL, which protein stability index is on record?
A: Its protein stability index is 2.52.

Q: With AVPTDFARAFAEKNGLSFIETSAL as the variant, how does the protein stability index read?
A: The protein stability index was 1.73.

Q: With AVPTDEARAFAEKNGLSFIETPAL as the variant, how does the protein stability index read?
A: Its protein stability index is 3.73.

Q: Which protein stability index does the source give for AVPTDEARAFAEKNGLSFIETAAL here?
A: Its protein stability index is 2.35.

Q: With AVPTDEARAFAEKNGLSFIETNAL as the variant, how does the protein stability index read?
A: The protein stability index was 3.38.

Q: With AVPTDEARAFAEKNGLSFIETKAL as the variant, how does the protein stability index read?
A: Its protein stability index is 3.44.

Q: With AVPTDEARAFAEKNGLSFIETTAL as the variant, how does the protein stability index read?
A: The protein stability index was 2.49.

Q: Which protein stability index does the source give for AVPTDEARAFAEKNGLSFIETGAL here?
A: Its protein stability index is 2.91.

Q: For AVPTDEARAFAEKNGLSFIETFAL, which protein stability index is on record?
A: Its protein stability index is 2.27.

Q: For AVPTDEARAFAEKNGLSFIETEAL, which protein stability index is on record?
A: Its protein stability index is 4.01.

Q: For AVPTDEARAFAGKNGLSFIETSAL, which protein stability index is on record?
A: The protein stability index was 1.9.

Q: For AVPTDEARAFANKNGLSFIETSAL, which protein stability index is on record?
A: The protein stability index was 2.41.

Q: Which protein stability index does the source give for AVPTDEARAFAKKNGLSFIETSAL here?
A: Its protein stability index is 1.81.

Q: With AVPTDEARAFATKNGLSFIETSAL as the variant, how does the protein stability index read?
A: The protein stability index was 1.46.

Q: Which protein stability index does the source give for AVPTDEARAFAPKNGLSFIETSAL here?
A: The protein stability index was 1.88.

Q: With AVPTDEARAFARKNGLSFIETSAL as the variant, how does the protein stability index read?
A: Its protein stability index is 2.55.

Q: For AVPTDEARAFAIKNGLSFIETSAL, which protein stability index is on record?
A: The protein stability index was 1.39.

Q: With AVPTDEARAFAYKNGLSFIETSAL as the variant, how does the protein stability index read?
A: Its protein stability index is 1.74.

Q: With AVPTDEARAFREKNGLSFIETSAL as the variant, how does the protein stability index read?
A: The protein stability index was 2.12.

Q: Which protein stability index does the source give for AVPTDEARAFGEKNGLSFIETSAL here?
A: Its protein stability index is 1.97.

Q: Which protein stability index does the source give for AVPTDEARAFVEKNGLSFIETSAL here?
A: The protein stability index was 2.65.

Q: With AVPTDEARAFKEKNGLSFIETSAL as the variant, how does the protein stability index read?
A: The protein stability index was 1.96.

Q: Which protein stability index does the source give for AVPTDEARAFEEKNGLSFIETSAL here?
A: The protein stability index was 2.76.

Q: With AVPTDEARAFNEKNGLSFIETSAL as the variant, how does the protein stability index read?
A: The protein stability index was 2.5.

Q: For AVPTDEARAFPEKNGLSFIETSAL, which protein stability index is on record?
A: Its protein stability index is 2.33.

Q: Which protein stability index does the source give for AVPTDEARAFDEKNGLSFIETSAL here?
A: The protein stability index was 3.24.

Q: With AVPTDEARAVAEKNGLSFIETSAL as the variant, how does the protein stability index read?
A: The protein stability index was 2.46.

Q: Which protein stability index does the source give for AVPTDEARAKAEKNGLSFIETSAL here?
A: Its protein stability index is 2.37.

Q: With AVPTDEARADAEKNGLSFIETSAL as the variant, how does the protein stability index read?
A: The protein stability index was 3.86.

Q: Which protein stability index does the source give for AVPTDEARAWAEKNGLSFIETSAL here?
A: The protein stability index was 2.36.

Q: Which protein stability index does the source give for AVPTDEARANAEKNGLSFIETSAL here?
A: The protein stability index was 2.9.

Q: With AVPTDEARALAEKNGLSFIETSAL as the variant, how does the protein stability index read?
A: Its protein stability index is 2.33.

Q: For AVPTDEARARAEKNGLSFIETSAL, which protein stability index is on record?
A: Its protein stability index is 2.49.

Q: With AVPTDEARAFAEKNGLSFIECSAL as the variant, how does the protein stability index read?
A: The protein stability index was 2.87.

Q: With AVPTDEARAFAEKNGLSFIEVSAL as the variant, how does the protein stability index read?
A: The protein stability index was 2.12.

Q: Which protein stability index does the source give for AVPTDEARAFAEKNGLSFIEDSAL here?
A: The protein stability index was 4.45.

Q: Which protein stability index does the source give for AVPTDEARAFAEKNGLSFIEMSAL here?
A: The protein stability index was 2.64.

Q: For AVPTDEARAFAEKNGLSFIESSAL, which protein stability index is on record?
A: Its protein stability index is 3.11.

Q: With AVPTDEARAFAEKNGLSFIEYSAL as the variant, how does the protein stability index read?
A: The protein stability index was 1.5.

Q: With AVPTDETRAFAEKNGLSFIETSAL as the variant, how does the protein stability index read?
A: The protein stability index was 2.57.

Q: With AVPTDERRAFAEKNGLSFIETSAL as the variant, how does the protein stability index read?
A: Its protein stability index is 2.46.

Q: For AVPTDEGRAFAEKNGLSFIETSAL, which protein stability index is on record?
A: Its protein stability index is 2.17.

Q: Which protein stability index does the source give for AVPTDENRAFAEKNGLSFIETSAL here?
A: Its protein stability index is 2.33.

Q: For AVPTDEVRAFAEKNGLSFIETSAL, which protein stability index is on record?
A: Its protein stability index is 2.25.
